Results as given in article doi:10.1101/2020.12.15.422856 (bioRxiv, 2020).

Molecular target: the molecule itself
Experiment: SEC

B1: Mer2 (wild-type, full-length) (natural protein)
chain: MVARGRTDEISTDVSEANSEHSLMITETSSPFRSIFSHSGKVANAGALEESDKQILEWAGKLELESMELRENSDKLIKVLNENSKTLCKSLNKFNQLLEQDAATNGNVKTLIKDLASQIENQLDKVSTAMLSKGDEKKTKSDSSYRQVLVEEISRYNSKITRHVTNKQHETEKSMRCTQEMLFNVGSQLEDVHKVLLSLSKDMHSLQTRQTALEMAFREKADHAYDRPDVSLNGTTLLHDMDEAHDKQRKKSVPPPRMMVTRSMKRRRSSSPTLSTSQNHNSEDNDDASHRLKRAARTIIPWEELRPDTLESEL
binding result: binds
